Results reported in publication PMC11055803, “ANCUT1, a novel thermoalkaline cutinase from Aspergillus nidulans and its application on hydroxycinnamic acids lipophilization” (Biotechnology Letters, 2024).

Tested on: T1, CC(=O)Oc1ccc([N+](=O)[O-])cc1
T1 construct: native secreted enzyme purified from culture broth (ammonium sulfate, ultrafiltration, continuous elution electrophoresis, renatured with Triton X-100); 22 kDa, pI 6; no glycosylation detected
Assay: Lineweaver-Burk, p-nitrophenol release
Format: biochemical, Aspergillus nidulans
Details: Tris-HCl pH 9.0, 37 °C, substrate 0.5-2 mM
Source text: Lineweaver-Burk, p-nitrophenol release on ANCUT1

Work on ANCUT1 (Aspergillus nidulans FGSC A4) yielded a Km of 18.29 mM, a Vmax of 58800 µM/min and a kcat of 3.67 s⁻¹. The kcat/Km was 201 M⁻¹ s⁻¹.
